Assay [1] concerns the target T1, HB-EGF expressed on the cell membrane (proHB-EGF), from pMCN_HB-EGF in DG44 and SKOV-3 cells or intrinsic in … (human, UniProt Q99075 20-208).
T1 construct: Full-length human HB-EGF without the cleavage-site mutation
Put plainly: FACS on HB-EGF_DG44 cells, FITC-labeled anti-human IgG, Geo-Mean against concentration; the text says ED50, about.

Assay [2] has as its target T2, active-form HB-EGF protein (R&D Systems, Inc., 259-HE) (human, UniProt Q99075 63-148).
T2 construct: Bought protein; also called sHB-EGF; secretory HB-EGF
Put plainly: ELISA on plate coated with 1 ug/mL HB-EGF protein (R&D 259-HE), AP-labeled anti-human IgG; the text says ED50, about. A general note: ELISA stands for enzyme-linked immunosorbent assay.

The target of assay [3] is proHB-EGF mutated at the protease cleavage site, expressed on Ba/F3 cells (HB-EGF_Ba/F3) (human) (UniProt Q99075). Put plainly: FACS, hybridoma culture supernatant on HB-EGF_Ba/F3 cells, EXP. 1 (no-mAb 19.1).
Assay [4] has the same target. Put plainly: FACS, hybridoma culture supernatant on HB-EGF_Ba/F3 cells, EXP. 2 (no-mAb 6.9). Background: Flow cytometry measures light scatter and fluorescence of single cells or particles in a stream.
Assay [5] deals with T2, active-form HB-EGF protein (R&D …). Put plainly: cell-based or functional assay.
Assay [6] concerns the target T1, HB-EGF expressed on the cell membrane …. Put plainly: cell-based or functional assay.

T2 sequence (Q99075 63-148 limits assumed): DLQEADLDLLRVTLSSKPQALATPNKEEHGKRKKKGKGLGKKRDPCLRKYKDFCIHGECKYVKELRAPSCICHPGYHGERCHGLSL
T1 sequence (Q99075 20-208 limits assumed): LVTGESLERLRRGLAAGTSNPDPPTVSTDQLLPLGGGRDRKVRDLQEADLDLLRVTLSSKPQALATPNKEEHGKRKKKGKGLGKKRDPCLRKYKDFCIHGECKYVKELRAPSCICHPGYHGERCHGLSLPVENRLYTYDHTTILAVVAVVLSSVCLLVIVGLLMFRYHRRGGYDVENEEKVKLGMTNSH

B1: chHE39, human chimeric antibody derived from HE39 antibody (antibody, V domains shown)
VH: EVQLQQSGPELMKPGASVKMSCKASGYIFTDYYMNWVKQSHGKSLEWIGRVNPNNGGTSYSQKFKDKATLTVDKSLNTAYMQVNSLTSEDSAVYYCARIYYGGSDWGQGTTLTVSS
VL: EIVMTQTPLSLSVTIGQPASISCKSSQSLLYTTGKTYLNWLQQRPGQAPKHLMYQVSKLVPGIPDRFSGSGSETDFTLKISRVEAEDLGVYYCLQGTYYPHTFGSGTKLEIKR
notes: Mouse HE39 variable regions linked to human IgG1 constant regions
By EC50 is commonly meant the concentration that produces a half-maximal response. Higher therefore signals a less potent agent. Take B1: the values for the EC50 in assay [1] and in assay [2] were 5.3 nM and 0.42 nM, respectively.

B2: HC-15 antibody (antibody, V domains shown)
VH: EVQLQQSGPELVKPGASVKISCKASGYSFTGYYMHWVKQSPEKRLEWIGEINPRTGITTYNQKFKAKATLTVDKSSSTAYMQLKSLTSEDSAVYYCARVGSSGPFTYWGQGTLVTVSA
VL: DIVMTQSPSSLSVSAGDKVTMSCKSSQSLLNSRNQKNYLAWYQQKPWQPPKLLIYGASTRESGVPDRFTGSGSGTDFTLTISSVQAEDLAVYYCQNDYSYPFTFGTGTKLEIK
As for B2, the FACS (GEO-mean) in assay [3] is 594 GEO-mean; in assay [4], 234 GEO-mean. In addition, in assay [5], the “EC50 of the growth-inhibiting effect on EGFR_Ba/F3 cells” value was 3.8 nM.

B3: saporin-labeled HC-15 antibody (HC-SAP) (antibody, V domains shown)
VH: B2 VH
VL: B2 VL
modifications: antibody labeled with an average of 2.4 saporin molecules; sites not stated
Consider B3, for which, in assay [6], the “EC50 of cell death induction, ES-2 cells (WST-8)” value is 0.09 nM; the “EC50 of cell death induction, MCAS cells (WST-8)” value came to 0.86 nM; the “EC50 of cell death induction, SKM-1 cells (WST-8)” value stood at 0.02 nM; the “EC50 of cell death induction, THP-1 cells (WST-8)” value is 0.01 nM. In assay [6], the “EC50 of cell death induction, U937 cells (WST-8)” value is 0.33 nM.

B4: chHC15, human chimeric antibody derived from HC15 antibody (antibody, human IgG1, kappa, V domains shown)
VH: B2 VH
VL: DIVMTQSPSSLSVSAGDKVTMSCKSSQSLLNSRNQKNYLAWYQQKPWQPPKLLIYGASTRESGVPDRFTGSGSGTDFTLTISSVQAEDLAVYYCQNDYSYPFTFGTGTKLEIKR
For B4, the EC50 was 3.3 nM in assay [1] and 0.21 nM in assay [2].
